# B1: recombinant human dipeptidyl peptidase 4 (protein)
# chain: NKGTDDATADSRKTYTLTDYLKNTYRLKLYSLRWISDHEYLYKQENNILVFNAEYGNSSVFLENSTFDEFGHSINDYSISPDGQFILLEYNYVKQWRHSYTASYDIYDLNKRQLITEERIPNNTQWVTWSPVGHKLAYVWNNDIYVKIEPNLPSYRITWTGKEDIIYNGITDWVYEEEVFSAYSALWWSPNGTFLAYAQFNDTEVPLIEYSFYSDESLQYPKTVRVPYPKAGAVNPTVKFFVVNTDSLSSVTNATSIQITAPASMLIGDHYLCDVTWATQERISLQWLRRIQNYSVMDICDYDESSGRWNCLVARQHIEMSTTGWVGRFRPSEPHFTLDGNSFYKIISNEEGYRHICYFQIDKKDCTFITKGTWEVIGIEALTSDYLYYISNEYKGMPGGRNLYKIQLSDYTKVTCLSCELNPERCQYYSVSFSKEAKYYQLRCSGPGLPLYTLHSSVNDKGLRVLEDNSALDKMLQNVQMPSKKLDFIILNETKFWYQMILPPHFDKSKKYPLLLDVYAGPCSQKADTVFRLNWATYLASTENIIVASFDGRGSGYQGDKIMHAINRRLGTFEVEDQIEAARQFSKMGFVDNKRIAIWGWSYGGYVTSMVLGSGSGVFKCGIAVAPVSRWEYYDSVYTERYMGLPTPEDNLDHYRNSTVMSRAENFKQVEYLLIHGTADDNVHFQQSAQISKALVDVGVDFQAMWYTDEDHGIASSTAHQHIYTHMSHFIKQCFSLP
# Biological target: recombinant human MCP-1 N1pE (human MCP-1 with an N-terminal pyroglutamate)
protein,measurement,value
B1,"N-terminal cleavage, Maldi-TOF mass spectrometry","MCP-1 is protected by a N-terminal pGlu-residue, which confers resistance against N-terminal cleavage by aminopeptidases, e.g. DP4"

# Source: US20110212853
